The text below walks through data of patent US20250376539A1 (KIRA PHARMACEUTICALS SUZHOU, published 2025).

Residue numbers refer to the chain shown, from its start.

As usually defined, the Kd is the equilibrium constant for the complex coming apart. As usually defined, the koff is the first-order rate constant of dissociation. As usually defined, the kon is the second-order rate constant of association. By EC50 is commonly meant the concentration giving half of the maximal effect.

For test [1], the target named is T1, recombinant human complement C2 (NP_000054.2), C-terminal 6His-tag, made in house (CHO cell expression) (human, UniProt P06681 21-752).
T1 construct: a linker before the tag is not described; also called human C2; Human C2
T1 sequence: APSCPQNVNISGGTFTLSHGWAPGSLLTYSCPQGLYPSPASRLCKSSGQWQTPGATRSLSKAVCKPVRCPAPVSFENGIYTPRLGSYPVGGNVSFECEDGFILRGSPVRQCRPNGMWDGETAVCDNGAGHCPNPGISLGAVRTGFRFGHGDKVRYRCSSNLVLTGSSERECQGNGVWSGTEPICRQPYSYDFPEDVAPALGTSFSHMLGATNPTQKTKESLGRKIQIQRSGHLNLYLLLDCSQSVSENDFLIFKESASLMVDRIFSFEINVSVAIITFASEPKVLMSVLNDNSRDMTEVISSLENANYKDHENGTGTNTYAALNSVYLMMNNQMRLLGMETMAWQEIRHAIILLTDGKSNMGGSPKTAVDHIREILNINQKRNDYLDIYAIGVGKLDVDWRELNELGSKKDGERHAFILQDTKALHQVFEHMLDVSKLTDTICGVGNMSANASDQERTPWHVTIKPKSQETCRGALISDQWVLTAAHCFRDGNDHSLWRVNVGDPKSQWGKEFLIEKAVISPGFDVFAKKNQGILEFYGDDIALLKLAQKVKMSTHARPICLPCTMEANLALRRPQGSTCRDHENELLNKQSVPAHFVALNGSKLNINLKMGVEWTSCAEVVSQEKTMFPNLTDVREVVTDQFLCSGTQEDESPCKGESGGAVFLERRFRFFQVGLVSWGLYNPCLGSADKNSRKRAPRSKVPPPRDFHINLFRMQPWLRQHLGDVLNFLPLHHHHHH
Kind of test: kinetic binding measurement, table 'Human C2 binding affinity' with sensorgrams below it (assay not named on the sheet); lot 20211215P05.

In test [2] the target is T1, recombinant human complement C2 …. Put plainly: kinetic binding measurement, table 'Human C2 binding affinity' with sensorgrams below it (assay not named on the sheet); lot 20211228P03.
The target in test [3] is T2, recombinant cynomolgus (cyno) complement C2 (XP_005553508.1), C-terminal 6His-tag, made in house (CHO cell … (cynomolgus monkey (Macaca fascicularis), UniProt P06681 21-752 (human entry))).
T2 construct: also called cyno C2; Cyno C2
T2 chain: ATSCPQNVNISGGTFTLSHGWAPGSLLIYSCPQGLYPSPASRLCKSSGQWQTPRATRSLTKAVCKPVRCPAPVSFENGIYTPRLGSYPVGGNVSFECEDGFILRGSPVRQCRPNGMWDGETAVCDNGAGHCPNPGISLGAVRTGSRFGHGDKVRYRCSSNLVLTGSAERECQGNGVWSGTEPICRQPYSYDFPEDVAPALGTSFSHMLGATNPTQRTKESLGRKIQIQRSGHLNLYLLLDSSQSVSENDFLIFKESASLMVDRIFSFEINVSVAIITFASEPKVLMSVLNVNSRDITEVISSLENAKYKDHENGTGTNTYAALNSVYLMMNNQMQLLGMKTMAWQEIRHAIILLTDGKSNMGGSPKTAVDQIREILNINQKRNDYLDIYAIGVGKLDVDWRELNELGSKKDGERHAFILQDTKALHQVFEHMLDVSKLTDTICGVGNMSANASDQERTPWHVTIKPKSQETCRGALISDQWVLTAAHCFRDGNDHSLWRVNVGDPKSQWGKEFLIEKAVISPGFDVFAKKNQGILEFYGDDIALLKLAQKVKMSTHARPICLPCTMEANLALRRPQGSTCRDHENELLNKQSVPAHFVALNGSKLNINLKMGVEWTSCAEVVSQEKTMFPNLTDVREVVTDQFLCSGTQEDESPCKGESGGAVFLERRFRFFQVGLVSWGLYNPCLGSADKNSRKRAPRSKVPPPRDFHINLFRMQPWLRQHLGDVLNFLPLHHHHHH
Put plainly: binding kinetics (BLI presumed).

In test [4] the target is T1, recombinant human complement C2 …. Kind of test: binding kinetics, neutral pH (BLI presumed).
Test [5] shares this target. Put plainly: BLI (Gator); ratio of dissociation at pH 5.8 to pH 7.4. How it is done: (§1) The histidine mutant constructs in Table 4 were tested for their pH-dependent dissociation from human C2. Probe-immobilized anti-C2 antibodies were incubated with C2 at pH 7.4 for 600s, followed by a 600s dissociation period in K Buffer at pH 7.4 or pH 5.8. The data were processed and analyzed by the Gator evaluation software.
(§2) Non-fusion mAb were used for comparison.

Test [6] has as its target T2, recombinant cynomolgus (cyno) …. The test is described as above. The protocol: as §1, §2
Test [7] deals with T1, recombinant human complement C2 …. Put plainly: BLI (Gator), antibody on probe; 600 s association at pH 7.4, 600 s dissociation at pH 5.8. The protocol:
as §1, §2

For test [8], the target named is T2, recombinant cynomolgus (cyno) …. Described as above. How it is done:
as §1, §2

The target of test [9] is T1, recombinant human complement C2 …. Kind of test: BLI (Gator), antibody on probe; 600 s association at pH 7.4, 600 s dissociation at pH 7.4. The protocol:
as §1, §2

The target in test [10] is T2, recombinant cynomolgus (cyno) …. The description is as above. The protocol: as §1, §2
Test [11] deals with T1, recombinant human complement C2 …. Put plainly: ELISA.
For test [12], the target named is T3, recombinant human C2a, C-terminal 6His-tag, made in house (CHO cell expression) (human, UniProt P06681 244-752).
T3 sequence: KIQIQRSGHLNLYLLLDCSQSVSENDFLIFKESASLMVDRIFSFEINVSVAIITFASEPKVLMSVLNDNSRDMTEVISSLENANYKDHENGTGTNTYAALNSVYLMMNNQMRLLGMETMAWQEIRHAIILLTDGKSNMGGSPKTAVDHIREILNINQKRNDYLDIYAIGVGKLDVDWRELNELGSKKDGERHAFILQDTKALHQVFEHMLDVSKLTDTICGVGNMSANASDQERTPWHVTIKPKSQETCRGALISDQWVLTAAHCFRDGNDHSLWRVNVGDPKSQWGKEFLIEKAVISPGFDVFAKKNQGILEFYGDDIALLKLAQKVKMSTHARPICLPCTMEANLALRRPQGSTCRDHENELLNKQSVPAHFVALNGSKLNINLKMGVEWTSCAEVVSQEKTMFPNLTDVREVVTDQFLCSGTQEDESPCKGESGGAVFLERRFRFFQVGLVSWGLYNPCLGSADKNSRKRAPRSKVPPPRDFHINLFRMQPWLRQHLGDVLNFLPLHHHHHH
Put plainly: ELISA. In general terms: ELISA stands for enzyme-linked immunosorbent assay.

Test [13] deals with T4, recombinant cyno C2a, C-terminal 6His-tag, made in house (CHO cell expression) (cynomolgus monkey, UniProt P06681 244-752 (human entry)).
T4 chain: T3 sequence with C18S, D68V, M73I, N84K, R112Q, E117K, H148Q
Kind of test: ELISA.

In test [14] the target is T2, recombinant cynomolgus (cyno) …. Put plainly: ELISA on cyno C2, OD450nm against log Ab conc. (nmol/L).

B1: 3.2pHGL-IgG1-LALA-LS (3.2 pH-IgG1-LALA-LS derived from germline) (antibody, V domains shown)
VH: EVQLLESGGGLVQPGGSLRLSCAASGFTFRHYAMSWVRQAPGKGLEWVSLISGSGASTHYADSVKGRFTISRDNSKNTLYLQMNSLRAEDTAVYYCAKDSLAVAGSEYFQHWGQGTLVTVSS
VL: SYVLTQPPSVSVAPGQTARITCGHNYFGGKSVHWYQQKPGQAPVLVVYDDSDRPSGIPERFSGSNSGNTATLTISRVEAGDEADYYCQVYDTSSDHWVFGGGTKLTVLG
notes: Heavy chain put together from the named parts
Regarding B1, in test [1], the Kd came to 0.149 nM, the koff was 4.58e-05 s⁻¹ and the kon worked out at 309000 M⁻¹ s⁻¹. Also, in test [2], the Kd was 0.101 nM, the koff was 3.33e-05 s⁻¹ and the on-rate constant (kon) worked out at 330000 M⁻¹ s⁻¹.

B2: 3.2 H2-10 (a representative pH dependent 3.2 comprising a histidine mutation in the heavy chain CDR2) (antibody, V domains shown)
VH: B1 VH with K76E, T78M
VL: SYVLTQAPSVSVAPGQTARITCGGNYFGGKSVHWYQQRPGQAPVLVVYDDSDRPSGIPERFSGSKSGNTATLAISRVEAGDEAAYYCQVYDTSSDHWVFGGGTKLTVL
Consider B2, for which the Kd in [3] amounted to 0.222 nM; in test [4], 0.172 nM. The koff in [3] is 9.84e-05 s⁻¹; in test [4], 6.05e-05 s⁻¹. Also, the kon in test [3] was 442000 M⁻¹ s⁻¹; in test [4] it was 353000 M⁻¹ s⁻¹. Further, the “Fold dissociation pH 5.8/pH 7.4” value in [5] is 8.2 fold; in test [6] it was 7.53 fold. Also, the entries for the “Dissociation (%) pH 5.8” value in test [7] and in [8] were 56.7% and 62.9%, respectively. The entries for the “Dissociation (%) pH 7.4” value in test [9] and in [10] were 6.91% and 8.35%, respectively.

B3: anti-C2 antibody 149.46 (antibody, IgG4, V domains shown)
VH: QVQLQQSGPGLVKPSQPLSLTCAISGDSVSSNSATWSWIRQSPSRGLEWLGRTYYRSKWYHDYAVFVKSRMTINPDTSKNQFSLQLNSVTPEDTAVYYCARGGMPASDIPHFDNWGQGILVTVSS
VL: SYELTQPPSLSVSPGQTASITCSGHKLGDKYACWYQQKPGQSPVLVIYQDNKRPSGIPERFSGSNSGNTATLTISGTQALDEADYYCQAWDSITYVFGTGTKVTVL
notes: Recombinant
As for B3, the EC50 in test [11] turned out to be 0.165 nM; in test [12], 0.0457 nM; in test [13] it was 0.042 nM. Further, in test [14], the binding result is “binds”.
